Experimental findings from article PMC10542350, “Structural basis of nucleosome deacetylation and DNA linker tightening by Rpd3S histone deacetylase complex” (Cell Research, 2023) are described below.

This series concerns the molecule itself. Nature of the series: cryo-EM structure; purified apo Rpd3S complex; 3D map of 3.5 Å.

B1: Rco1 (natural protein, Saccharomyces cerevisiae, UniProt Q04779 1-684, looked up)
chain: MDTSKKDTTRSPSHSNSSSPSSSSLSSSSSKEKKRPKRLSSQNVNYDLKRRKIITSEGIERSFKNEHSNLAVEDNIPEEEPKELLEKDSKGNIIKLNEPSTISEDSKVSVTGLPLNKGPSEKIKRESLWNYRKNLGGQSNNSEMTLVPSKRFTQVPKNFQDLNRNDLKTFLTENMTEESNIRSTIGWNGDIINRTRDREPESDRDNKKLSNIRTKIILSTNATYDSKSKLFGQNSIKSTSNASEKIFRDKNNSTIDFENEDFCSACNQSGSFLCCDTCPKSFHFLCLDPPIDPNNLPKGDWHCNECKFKIFINNSMATLKKIESNFIKQNNNVKIFAKLLFNIDSHNPKQFQLPNYIKETFPAVKTGSRGQYSDENDKIPLTDRQLFNTSYGQSITKLDSYNPDTHIDSNSGKFLICYKCNQTRLGSWSHPENSRLIMTCDYCQTPWHLDCVPRASFKNLGSKWKCPLHSPTKVYKKIHHCQEDNSVNYKVWKKQRLINKKNQLYYEPLQKIGYQNNGNIQIIPTTSHTDYDFNQDFKITQIDENSIKYDFFDKIYKSKMVQKRKLFQFQESLIDKLVSNGSQNGNSEDNMVKDIASLIYFQVSNNDKSSNNKSASKSNNLRKLWDLKELTNVVVPNELDSIQFNDFSSDEIKHLLYLKKIIESKPKEELLKFLNIENPENQSE
notes: Rco1, Saccharomyces cerevisiae; two copies (Rco1A, Rco1B) stand in the Rpd3S complex; also called Rco1A; Rco1B; source: High Five insect cells (baculovirus), co-expressed with the other Rpd3S subunits; purified as part of the complex (streptavidin column, Resource Q, gel filtration); not shown: double StrepII, C-terminal, kept
In the case of B1, the binding result is reported as “binds”.
